Experimental data taken from the supplement of paper PMC5998384.

How the values were obtained:
[1] = tested on: HeLa Kyoto; test: thermal stability score vs G1/S (z-score of summed log2 fold changes over temperatures); higher = more thermally stable than in G1/S
[2] = tested on: HeLa Kyoto; test: solubility change mitosis vs G1/S (difference of NP-40 vs SDS log2 ratios) (log2 ratio difference); higher = more soluble in mitosis
[3] = tested on: HeLa Kyoto; test: melting temperature (median over replicates), in situ; higher = more thermally stable
[4] = tested on: HeLa Kyoto; test: solubility in G1/S (NP-40 vs SDS abundance) (log2 ratio); higher = more soluble; conditions: cell cycle stage: G1/S
[5] = cell cycle stage: early G1 (4.5 h after nocodazole release)
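Wherever melting temperature (median over replicates), in situ is given: HeLa Kyoto cells synchronized by double thymidine or nocodazole block, proteins quantified by TMT10plex mass spectrometry, three independent biological replicates.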
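Wherever solubility change mitosis vs G1/S (difference of NP-40 vs SDS log2 ratios) is given: synchronized HeLa Kyoto cells (double thymidine block for G1/S, nocodazole release for mitosis), protein amounts in NP-40 versus SDS lysates quantified by mass spectrometry, three biological replicates.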
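Wherever solubility in G1/S (NP-40 vs SDS abundance) is given: HeLa Kyoto cells arrested at G1/S by double thymidine block, proteins quantified by TMT10plex mass spectrometry in mild NP-40 versus SDS extracts, three biological replicates.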
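Wherever thermal stability score vs G1/S (z-score of summed log2 fold changes over temperatures) is given: synchronized HeLa Kyoto cells, proteins quantified by TMT10plex mass spectrometry, three biological replicates, mitosis taken 0.5 h after nocodazole release, G1/S directly after double thymidine block.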

| Sequence | thermal stability score [1, 5] | thermal stability score ([1]; cell cycle stage: mitosis) | solubility change mitosis (log2) [2] | melting temperature ([3]; cell cycle stage: G1/S) | melting temperature ([3]; cell cycle stage: mitosis) | solubility in G1/S (log2) [4] |
| --- | --- | --- | --- | --- | --- | --- |
| MAFWAGGSPSVVDYFPSEDFYRCGYCKNESGSRSNGMWAHSMTVQDYQDLIDRGWRRSGKYVYKPVMNQTCCPQYTIRCRPLQFQPSKSHKKVLKKMLKFLAKGEVPKGSCEDEPMDSTMDDAVAGDFALINKLDIQCDLKTLSDDIKESLESEGKNSKKEEPQELLQSQDFVGEKLGSGEPSHSVKVHTVPKPGKGADLSKPPCRKAKEIRKERKRLKLMQQNPAGELEGFQAQGHPPSLFPPKAKSNQPKSLEDLIFESLPENASHKLEVRVVRSSPPSSQFKATLLESYQVYKRYQMVIHKNPPDTPTESQFTRFLCSSPLEAETPPNGPDCGYGSFHQQYWLDGKIIAVGVIDILPNCVSSVYLYYDPDYSFLSLGVYSALREIAFTRQLHEKTSQLSYYYMGFYIHSCPKMKYKGQYRPSDLLCPETYVWVPIEQCLPSLENSKYCRFNQDPEAVDEDRSTEPDRLQVFHKRAIMPYGVYKKQQKDPSEEAAVLQYASLVGQKCSERMLLFRN [ATE1] | 0.0147 | 0.195 | -0.352 | 51 °C | 50.8 °C | 0.211 |
| MAGAAGLTAEVSWKVLERRARTKRSGSVYEPLKSINLPRPDNETLWDKLDHYYRIVKSTLLLYQSPTTGLFPTKTCGGDQKAKIQDSLYCAAGAWALALAYRRIDDDKGRTHELEHSAIKCMRGILYCYMRQADKVQQFKQDPRPTTCLHSVFNVHTGDELLSYEEYGHLQINAVSLYLLYLVEMISSGLQIIYNTDEVSFIQNLVFCVERVYRVPDFGVWERGSKYNNGSTELHSSSVGLAKAALEAINGFNLFGNQGCSWSVIFVDLDAHNRNRQTLCSLLPRESRSHNTDAALLPCISYPAFALDDEVLFSQTLDKVVRKLKGKYGFKRFLRDGYRTSLEDPNRCYYKPAEIKLFDGIECEFPIFFLYMMIDGVFRGNPKQVQEYQDLLTPVLHHTTEGYPVVPKYYYVPADFVEYEKNNPGSQKRFPSNCGRDGKLFLWGQALYIIAKLLADELISPKDIDPVQRYVPLKDQRNVSMRFSNQGPLENDLVVHVALIAESQRLQVFLNTYGIQTQTPQQVEPIQIWPQQELVKAYLQLGINEKLGLSGRPDRPIGCLGTSKIYRILGKTVVCYPIIFDLSDFYMSQDVFLLIDDIKNALQFIKQYWKMHGRPLFLVLIREDNIRGSRFNPILDMLAALKKGIIGGVKVHVDRLQTLISGAVVEQLDFLRISDTEELPEFKSFEELEPPKHSKVKRQSSTPSAPELGQQPDVNISEWKDKPTHEILQKLNDCSCLASQAILLGILLKREGPNFITKEGTVSDHIERVYRRAGSQKLWLAVRYGAAFTQKFSSSIAPHITTFLVHGKQVTLGAFGHEEEVISNPLSPRVIQNIIYYKCNTHDEREAVIQQELVIHIGWIISNNPELFSGMLKIRIGWIIHAMEYELQIRGGDKPALDLYQLSPSEVKQLLLDILQPQQNGRCWLNRRQIDGSLNRTPTGFYDRVWQILERTPNGIIVAGKHLPQQPTLSDMTMYEMNFSLLVEDTLGNIDQPQYRQIVVELLMVVSIVLERNPELEFQDKVDLDRLVKEAFNEFQKDQSRLKEIEKQDDMTSFYNTPPLGKRGTCSYLTKAVMNLLLEGEVKPNNDDPCLIS [PHKB] | -0.245 | 0.284 | -0.191 | 50.2 °C | 49.3 °C | -0.047 |
| MAGAASPCANGCGPGAPSDAEVLHLCRSLEVGTVMTLFYSKKSQRPERKTFQVKLETRQITWSRGADKIEGAIDIREIKEIRPGKTSRDFDRYQEDPAFRPDQSHCFVILYGMEFRLKTLSLQATSEDEVNMWIKGLTWLMEDTLQAPTPLQIERWLRKQFYSVDRNREDRISAKDLKNMLSQVNYRVPNMRFLRERLTDLEQRSGDITYGQFAQLYRSLMYSAQKTMDLPFLEASTLRAGERPELCRVSLPEFQQFLLDYQGELWAVDRLQVQEFMLSFLRDPLREIEEPYFFLDEFVTFLFSKENSVWNSQLDAVCPDTMNNPLSHYWISSSHNTYLTGDQFSSESSLEAYARCLRMGCRCIELDCWDGPDGMPVIYHGHTLTTKIKFSDVLHTIKEHAFVASEYPVILSIEDHCSIAQQRNMAQYFKKVLGDTLLTKPVEISADGLPSPNQLKRKILIKHKKLAEGSAYEEVPTSMMYSENDISNSIKNGILYLEDPVNHEWYPHYFVLTSSKIYYSEETSSDQGNEDEEEPKEVSSSTELHSNEKWFHGKLGAGRDGRHIAERLLTEYCIETGAPDGSFLVRESETFVGDYTLSFWRNGKVQHCRIHSRQDAGTPKFFLTDNLVFDSLYDLITHYQQVPLRCNEFEMRLSEPVPQTNAHESKEWYHASLTRAQAEHMLMRVPRDGAFLVRKRNEPNSYAISFRAEGKIKHCRVQQEGQTVMLGNSEFDSLVDLISYYEKHPLYRKMKLRYPINEEALEKIGTAEPDYGALYEGRNPGFYVEANPMPTFKCAVKALFDYKAQREDELTFIKSAIIQNVEKQEGGWWRGDYGGKKQLWFPSNYVEEMVNPVALEPEREHLDENSPLGDLLRGVLDVPACQIAIRPEGKNNRLFVFSISMASVAHWSLDVAADSQEELQDWVKKIREVAQTADARLTEGKIMERRKKIALELSELVVYCRPVPFDEEKIGTERACYRDMSSFPETKAEKYVNKAKGKKFLQYNRLQLSRIYPKGQRLDSSNYDPLPMWICGSQLVALNFQTPDKPMQMNQALFMTGRHCGYVLQPSTMRDEAFDPFDKSSLRGLEPCAISIEVLGARHLPKNGRGIVCPFVEIEVAGAEYDSTKQKTEFVVDNGLNPVWPAKPFHFQISNPEFAFLRFVVYEEDMFSDQNFLAQATFPVKGLKTGYRAVPLKNNYSEDLELASLLIKIDIFPAKENGDLSPFSGTSLRERGSDASGQLFHGRAREGSFESRYQQPFEDFRISQEHLADHFDSRERRAPRRTRVNGDNRL [PLCG1] | -0.13 | -0.0513 | -0.123 | 50.2 °C | 50.2 °C | -0.111 |
